B1: TRAF3IP2 (parent)
chain: YGHDYPRAAYQQVIQPALPGQPLP

Variants of: B1
Assay: protein stability index of a GFP-peptide fusion (GPS, HEK-293T) (PSI 1-6); higher = more stable
Settings: c terminus: a fixed tail appended
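Note: lentivirally expressed fusions sorted by FACS into six bins by GFP to DsRed ratio, PSI derived from sequencing read proportions per bin multiplied by bin number.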

Row | Variant | protein stability index
1 | YGHDYPRAAYQQVIQPALPGSPLP [Q21S] | 1.99
2 | YGHDYPRAAYQQVIQPALPGEPLP [Q21E] | 2.2
3 | YGHDYPRAAYQQVIQPALPGKPLP [Q21K] | 2.21
4 | YGHDYPRAAYQQVIQPALPGPPLP [Q21P] | 2.95
5 | YGHDYPRAAYQQVIQPALPGVPLP [Q21V] | 2.44
6 | YGHDYPRAAYQQVIQPALPGHPLP [Q21H] | 1.37
7 | YGHDYPRAAYQQVIQPALPGNPLP [Q21N] | 2.08
8 | YGHDYPRAAYQQVIQPALPGAPLP [Q21A] | 2.12
9 | YGHDYPRAAYQQVIQPALPGMPLP [Q21M] | 2.67
10 | YGHDYPRAAYQQVIQPALPGRPLP [Q21R] | 2.24
11 | YGHDYPRAAYQSVIQPALPGQPLP [Q12S] | 2.13
12 | YGHDYPRAAYQLVIQPALPGQPLP [Q12L] | 1.98
13 | YGHDYPRAAYQTVIQPALPGQPLP [Q12T] | 1.7
14 | YGHDYPRAAYQHVIQPALPGQPLP [Q12H] | 2.01
15 | YGHDYPRAAYQMVIQPALPGQPLP [Q12M] | 3.06
16 | YGHDYPRAAYQRVIQPALPGQPLP [Q12R] | 2.17
17 | YGHDYPRAAYQNVIQPALPGQPLP [Q12N] | 1.65
18 | YGHDYPRAAYQQVIQPALPMQPLP [G20M] | 2.27
19 | YGHDYPRAAYQQVIQPALPRQPLP [G20R] | 1.52
20 | YGHDYPRAAYQQVIQPALPFQPLP [G20F] | 1.8
21 | YGHDYPRAAYQQVIQPALPLQPLP [G20L] | 1.38
22 | YGHDYPRAASQQVIQPALPGQPLP [Y10S] | 1.75
23 | YGHDYPRAAKQQVIQPALPGQPLP [Y10K] | 2.36
24 | YGHDYPRAAAQQVIQPALPGQPLP [Y10A] | 1.79

Row | Variant | protein stability index
25 | YGHDYPRAAMQQVIQPALPGQPLP [Y10M] | 1.65
26 | YGHDYPRAANQQVIQPALPGQPLP [Y10N] | 1.85
27 | YGHDYPRAAVQQVIQPALPGQPLP [Y10V] | 2.13
28 | YGHDYPRAAPQQVIQPALPGQPLP [Y10P] | 2.28
29 | YGHDYPRAAQQQVIQPALPGQPLP [Y10Q] | 2.07
30 | YGHDYPRAAWQQVIQPALPGQPLP [Y10W] | 1.75
31 | YGHSYPRAAYQQVIQPALPGQPLP [D4S] | 2.07
32 | YGHLYPRAAYQQVIQPALPGQPLP [D4L] | 1.73
33 | YGHVYPRAAYQQVIQPALPGQPLP [D4V] | 2.36
34 | YGHNYPRAAYQQVIQPALPGQPLP [D4N] | 2.42
35 | YGHGYPRAAYQQVIQPALPGQPLP [D4G] | 2.05
36 | YGHEYPRAAYQQVIQPALPGQPLP [D4E] | 1.81
37 | WGHDYPRAAYQQVIQPALPGQPLP [Y1W] | 2.68
38 | DGHDYPRAAYQQVIQPALPGQPLP [Y1D] | 4.19
39 | IGHDYPRAAYQQVIQPALPGQPLP [Y1I] | 3.52
40 | GGHDYPRAAYQQVIQPALPGQPLP [Y1G] | 3.63
41 | SGHDYPRAAYQQVIQPALPGQPLP [Y1S] | 3.75
42 | TGHDYPRAAYQQVIQPALPGQPLP [Y1T] | 3.54
43 | NGHDYPRAAYQQVIQPALPGQPLP [Y1N] | 4.21
44 | RGHDYPRAAYQQVIQPALPGQPLP [Y1R] | 3.71
45 | YKHDYPRAAYQQVIQPALPGQPLP [G2K] | 3.69
46 | YTHDYPRAAYQQVIQPALPGQPLP [G2T] | 2.27
47 | YHHDYPRAAYQQVIQPALPGQPLP [G2H] | 2.46
48 | YCHDYPRAAYQQVIQPALPGQPLP [G2C] | 1.67

Row | Variant | protein stability index
49 | YWHDYPRAAYQQVIQPALPGQPLP [G2W] | 2.03
50 | YDHDYPRAAYQQVIQPALPGQPLP [G2D] | 3.43
51 | YPHDYPRAAYQQVIQPALPGQPLP [G2P] | 3.42
52 | YGHDYPRRAYQQVIQPALPGQPLP [A8R] | 3.2
53 | YGHDYPRIAYQQVIQPALPGQPLP [A8I] | 2.57
54 | YGHDYPRKAYQQVIQPALPGQPLP [A8K] | 2.14
55 | YGHDYPRSAYQQVIQPALPGQPLP [A8S] | 1.93
56 | YGHDYPRFAYQQVIQPALPGQPLP [A8F] | 2.94
57 | YGHDYPLAAYQQVIQPALPGQPLP [R7L] | 2.27
58 | YGHDYPMAAYQQVIQPALPGQPLP [R7M] | 2.27
59 | YGHDYPGAAYQQVIQPALPGQPLP [R7G] | 2.58
60 | YGHDYPCAAYQQVIQPALPGQPLP [R7C] | 2.44
61 | YGHDYPVAAYQQVIQPALPGQPLP [R7V] | 2.56
62 | YGHDYPNAAYQQVIQPALPGQPLP [R7N] | 2.82
63 | YGDDYPRAAYQQVIQPALPGQPLP [H3D] | 2.02
64 | YGKDYPRAAYQQVIQPALPGQPLP [H3K] | 2.5
65 | YGQDYPRAAYQQVIQPALPGQPLP [H3Q] | 2.04
66 | YGLDYPRAAYQQVIQPALPGQPLP [H3L] | 1.86
67 | YGMDYPRAAYQQVIQPALPGQPLP [H3M] | 1.77
68 | YGYDYPRAAYQQVIQPALPGQPLP [H3Y] | 1.74
69 | YGWDYPRAAYQQVIQPALPGQPLP [H3W] | 1.69
70 | YGPDYPRAAYQQVIQPALPGQPLP [H3P] | 4.18
71 | YGHDYPRAAYQQVQQPALPGQPLP [I14Q] | 1.75
72 | YGHDYPRAAYQQVWQPALPGQPLP [I14W] | 2.33

Row | Variant | protein stability index
73 | YGHDYPRAAYQQVNQPALPGQPLP [I14N] | 1.92
74 | YGHDYPRAAYQQVHQPALPGQPLP [I14H] | 1.88
75 | YGHDYPRAAYQQVSQPALPGQPLP [I14S] | 2.09
76 | YGHDYPRAAYQQVMQPALPGQPLP [I14M] | 1.49
77 | YGHDYPRAAYQQVCQPALPGQPLP [I14C] | 2.49
78 | YGHDYPRAAYQQQIQPALPGQPLP [V13Q] | 2.25
79 | YGHDYPRAAYQQFIQPALPGQPLP [V13F] | 2.38
80 | YGHDYPRAAYQQNIQPALPGQPLP [V13N] | 2.09
81 | YGHDYPRAAYQQTIQPALPGQPLP [V13T] | 1.83
82 | YGHDCPRAAYQQVIQPALPGQPLP [Y5C] | 3.5
83 | YGHDQPRAAYQQVIQPALPGQPLP [Y5Q] | 3.83
84 | YGHDIPRAAYQQVIQPALPGQPLP [Y5I] | 3.43
85 | YGHDEPRAAYQQVIQPALPGQPLP [Y5E] | 3.88
86 | YGHDVPRAAYQQVIQPALPGQPLP [Y5V] | 3.46
87 | YGHDRPRAAYQQVIQPALPGQPLP [Y5R] | 3.49
88 | YGHDWPRAAYQQVIQPALPGQPLP [Y5W] | 3.66
89 | YGHDYPRAAYQQVIQPALTGQPLP [P19T] | 2.65
90 | YGHDYPRAAYQQVIQPALEGQPLP [P19E] | 2.42
91 | YGHDYPRAAYQQVIQPALQGQPLP [P19Q] | 1.54
92 | YGHDYPRAAYQQVIQPALYGQPLP [P19Y] | 1.87
93 | YGHDYPRAAYQQVIQPALMGQPLP [P19M] | 2.34
94 | YGHDYPRAAYQQVIQPALFGQPLP [P19F] | 2.44

Source: the supplement of paper PMC10567573
